Read-outs that look alike come from different tables or passages of the source.
B1: 6E1 (antibody, V domains shown)
VH: EVQLLESGGGLVQPGGSLRLSCAASGFTFSSFAMSWVRQAPGKGLEWVSGISGSGGSTYYADSVKGRFTISRDNSKNTLYLQMNSLRAEDTAIYYCAKDKRNWNYGIDSFDFWGQGTMVTVSS
VL: DIQMTQSPSSLSASVGGRVTITCRTSQSISGYLNWYQQKAGKAPKLLIYATSNLQSGVPSRFTGSGSGTDFTLTISSLQPEDFAAYYCHQSHSPPFTFGPGTKVAFK
B2: 2A10 (antibody, V domains shown)
VH: EVQLVQSGAEVKKPGESLKISCKGSGYSFTYYWIGWVRQMPGKGLEWMGIIYPGDSDTRYSPSFQGQVTISADKSISTAYLQWSSLKASDTAMYYCTTHARNWNNVAYWGQGTLVTVSS
VL: DIQMTQSPSSLSASVGDRLTITCRASQNINTFLNWYQQNPGKAPKVLIYAASSLESGVPSRFSGSGSGTDFTLTISSLQPEDFATYYCQQSSSTPWTFGQGTKVEIK

What was measured:
Test in all cases: cell-based or functional assay
[1] = biological target: T1, BK virus VP1 protein, genotype I (BK virus, UniProt P03088 1-362)
T1 sequence: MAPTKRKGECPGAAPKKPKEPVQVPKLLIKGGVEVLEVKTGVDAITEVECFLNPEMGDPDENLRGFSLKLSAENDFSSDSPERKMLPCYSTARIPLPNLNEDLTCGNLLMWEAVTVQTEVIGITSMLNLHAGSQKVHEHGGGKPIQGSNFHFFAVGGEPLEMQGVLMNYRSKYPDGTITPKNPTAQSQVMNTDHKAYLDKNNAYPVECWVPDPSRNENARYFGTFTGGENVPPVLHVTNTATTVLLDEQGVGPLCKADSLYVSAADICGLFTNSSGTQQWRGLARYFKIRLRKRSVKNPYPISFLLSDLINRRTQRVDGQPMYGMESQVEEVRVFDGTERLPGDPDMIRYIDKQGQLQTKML

[2] = biological target: BK virus VP1 protein, genotype III (BK virus)
[3] = biological target: BK virus VP1 protein, genotype II (BK virus)
[4] = biological target: BK virus VP1 protein, genotype IV (BK virus)
[5] = biological target: T1, BK virus VP1 protein, genotype I; remark: listed apart in the source
[6] = biological target: BK virus VP1 protein, genotype III (BK virus); remark: listed apart in the source
[7] = biological target: BK virus VP1 protein, genotype II (BK virus); remark: listed apart in the source
[8] = biological target: BK virus VP1 protein, genotype IV (BK virus); remark: listed apart in the source
[9] = biological target: T1, BK virus VP1 protein, genotype I; remark: listed apart in the source
[10] = biological target: BK virus VP1 protein, genotype III (BK virus); remark: listed apart in the source
[11] = biological target: BK virus VP1 protein, genotype II (BK virus); remark: listed apart in the source
[12] = biological target: BK virus VP1 protein, genotype IV (BK virus); remark: listed apart in the source

Row | Binder | EC50, pseudovirus neutralization [1] [pM] | EC50, pseudovirus neutralization [2] [pM] | EC50, pseudovirus neutralization [3] [pM] | EC50, pseudovirus neutralization [4] [pM] | EC50, pseudovirus neutralization (mAb mixed with irrelevant isotype matched mAb M2) [5] [pM] | EC50, pseudovirus neutralization (mAb mixed with irrelevant isotype matched mAb M2) [6] [pM] | EC50, pseudovirus neutralization (mAb mixed with irrelevant isotype matched mAb M2) [7] [pM] | EC50, pseudovirus neutralization (mAb mixed with irrelevant isotype matched mAb M2) [8] [pM] | EC50, pseudovirus neutralization (mAb mixed with irrelevant isotype matched mAb M2) [9] [pM] | EC50, pseudovirus neutralization (mAb mixed with irrelevant isotype matched mAb M2) [10] [pM] | EC50, pseudovirus neutralization (mAb mixed with irrelevant isotype matched mAb M2) [11] [pM] | EC50, pseudovirus neutralization (mAb mixed with irrelevant isotype matched mAb M2) [12] [pM]
1 | B1 | 2.95 | > 6670 | > 6670 | 9.5 | 0.78 | > 2000 | > 2000 | 21 | 0.67 | > 6670 | > 6670 | 49.6
2 | B2 | > 6670 | 2.4 | 9.4 | 1.5 | > 2000 | 0.654 | 11.2 | 0.72 | > 6670 | 6.4 | 55.7 | 5.9

Source: US20250304658A1 (ICAHN SCHOOL OF MEDICINE AT MOUNT SINAI, published 2025)
